{"source": "the RNAGym collection of RNA variant scans (doi:10.1073/pnas.2313332121)", "parents": {"B1": {"name": "TPR 5TU (parent)", "chain": "GGAUCUUCUCGAUCUAACAAAAAAGACAAAUCUGCCACAAAGCUUGAGAGCAUCUUCGGAUGCAGAGGCGGCAGCCUUCGGUGGCGCGAUAGCGCCAACGUUCUCAACUAUGACACGCAAAACGCGUGCUCCGUUGAAUGGAGUUUAUCAUG"}}, "note": "Variants at the floor of the assay were thinned out."}
{"variants_of": "B1", "assay": "polymerase ribozyme fitness, log enrichment relative to wild type (log ratio); higher = more active; in vitro selection for triplet polymerase activity", "how_it_was_run": "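To select mutant libraries of each subunit of a heterodimeric triplet polymerase ribozyme, built by PCR and transcribed, each was annealed with a biotinylated primer, partner subunit and triplets, then incubated frozen at −7 °C. Extended constructs were gel-excised, captured on streptavidin beads and amplified by RT-PCR, in one round carried out in triplicate. Illumina sequencing of input and output libraries kept genotypes with ≥10 input reads and ≥1 read per output. Fitness is the base-2 logarithm of genotype enrichment relative to wild-type enrichment, from inverse-variance-weighted replicate averages.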"}
{"variant": "A20U G46U A98G C99U", "polymerase ribozyme fitness (log ratio)": -3.31}
{"variant": "C43U G80U C93G C99G", "polymerase ribozyme fitness (log ratio)": "≤ -4.2"}
{"variant": "A28U C38U G59U A60G G94A C95U C103U", "polymerase ribozyme fitness (log ratio)": "≤ -4.2"}
{"variant": "C5U G81U C87A A107G U144G", "polymerase ribozyme fitness (log ratio)": "≤ -4.2"}
{"variant": "U56A G84C A150G", "polymerase ribozyme fitness (log ratio)": -3.39}
{"variant": "G48U U135C G143C", "polymerase ribozyme fitness (log ratio)": -3.78}
{"variant": "A24C A41U C54A", "polymerase ribozyme fitness (log ratio)": "≤ -4.2"}
{"variant": "C87U A110U A120C U135A G136A", "polymerase ribozyme fitness (log ratio)": "≤ -4.2"}
{"variant": "G59A A66C G84A A89U", "polymerase ribozyme fitness (log ratio)": "≤ -4.2"}
{"variant": "C54A G80C C114A U127G G143C", "polymerase ribozyme fitness (log ratio)": "≤ -4.2"}
{"variant": "C36U U61A C96G G133A", "polymerase ribozyme fitness (log ratio)": -3.93}
{"variant": "A3U A16U C38U G65C G88A", "polymerase ribozyme fitness (log ratio)": "≤ -4.2"}
{"variant": "U53A G68U G88U U90C", "polymerase ribozyme fitness (log ratio)": "≤ -4.2"}
{"variant": "C35A U55G C57U C93A C96G C118U", "polymerase ribozyme fitness (log ratio)": "≤ -4.2"}
{"variant": "A12U A29G A37U A47U U55A G84U A89G A120C G140C U144G", "polymerase ribozyme fitness (log ratio)": "≤ -4.2"}
{"variant": "C5U U7G C14G A21C U56G C57A G58C C103A A142U U145C", "polymerase ribozyme fitness (log ratio)": "≤ -4.2"}
{"variant": "A52U G84U", "polymerase ribozyme fitness (log ratio)": -2.48}
{"variant": "U55G G94A A115G A122U U134C U139C G143A U148C", "polymerase ribozyme fitness (log ratio)": "≤ -4.2"}
{"variant": "C36U C93A A110C U139A", "polymerase ribozyme fitness (log ratio)": "≤ -4.2"}
{"variant": "G50C C103A U139C", "polymerase ribozyme fitness (log ratio)": "≤ -4.2"}
{"variant": "A26C G59A C76U G84U G88A G126A", "polymerase ribozyme fitness (log ratio)": "≤ -4.2"}
{"variant": "C63G G92A", "polymerase ribozyme fitness (log ratio)": -2.18}
{"variant": "A41G A49C U55C C69A C85U C108U", "polymerase ribozyme fitness (log ratio)": "≤ -4.2"}
{"variant": "A24C G46A C57G C75G A89G C96G", "polymerase ribozyme fitness (log ratio)": "≤ -4.2"}
{"variant": "A26U A30C A49G G92C", "polymerase ribozyme fitness (log ratio)": "≤ -4.2"}
{"variant": "G50U U78C", "polymerase ribozyme fitness (log ratio)": -2.27}
{"variant": "U15C A91C G94U C96G", "polymerase ribozyme fitness (log ratio)": "≤ -4.2"}
{"variant": "A41C U53A C63U C76A", "polymerase ribozyme fitness (log ratio)": "≤ -4.2"}
{"variant": "A52C U53A C85U A107U A119C C125U", "polymerase ribozyme fitness (log ratio)": "≤ -4.2"}
{"variant": "C27G U33C U55A A97C A121G", "polymerase ribozyme fitness (log ratio)": "≤ -4.2"}
{"variant": "G81A A147U", "polymerase ribozyme fitness (log ratio)": 0.732}
{"variant": "G48U C118A", "polymerase ribozyme fitness (log ratio)": -0.303}
{"variant": "A37G C114U", "polymerase ribozyme fitness (log ratio)": -2.87}
{"variant": "A26C G94A", "polymerase ribozyme fitness (log ratio)": -1.36}
{"variant": "U44A C93G A113G U134A", "polymerase ribozyme fitness (log ratio)": "≤ -4.2"}
{"variant": "A17U A37U C96A C99U A113C U134G G152C", "polymerase ribozyme fitness (log ratio)": -4.19}
{"variant": "G59A C63G C69G C93U", "polymerase ribozyme fitness (log ratio)": -2.27}
{"variant": "C35U C87U", "polymerase ribozyme fitness (log ratio)": -0.746}
{"variant": "A41G G58A U82G U144A U145C", "polymerase ribozyme fitness (log ratio)": 0.156}
{"variant": "A39U C99U U146G", "polymerase ribozyme fitness (log ratio)": -2.56}
{"variant": "C51U G67A G83U G94A A98C C99G U109C A120U U145G", "polymerase ribozyme fitness (log ratio)": "≤ -4.2"}
{"variant": "A29U G50U U55A G86C G141C", "polymerase ribozyme fitness (log ratio)": "≤ -4.2"}
{"variant": "A73G G140A", "polymerase ribozyme fitness (log ratio)": -2.98}
{"variant": "U9G C27U U55A C85G C95G C123G G140U", "polymerase ribozyme fitness (log ratio)": "≤ -4.2"}
{"variant": "G50U G84C C85G A106G C116U G152A", "polymerase ribozyme fitness (log ratio)": "≤ -4.2"}
{"variant": "G58C C75U C95U C99G U135C", "polymerase ribozyme fitness (log ratio)": "≤ -4.2"}
{"variant": "G67A C72A A142U A150G", "polymerase ribozyme fitness (log ratio)": "≤ -4.2"}
{"variant": "C43U A147U", "polymerase ribozyme fitness (log ratio)": -4.06}
{"variant": "A60C C85G", "polymerase ribozyme fitness (log ratio)": -3.9}
{"variant": "C36A A91U U145C", "polymerase ribozyme fitness (log ratio)": "≤ -4.2"}
{"variant": "C76A U127A", "polymerase ribozyme fitness (log ratio)": -3.75}
{"variant": "G68A C116A C123U", "polymerase ribozyme fitness (log ratio)": "≤ -4.2"}
{"variant": "C14G U56A A60C G88C C95U U139G G140A", "polymerase ribozyme fitness (log ratio)": "≤ -4.2"}
{"variant": "C14A C27G A28G C43U G81A G84U U109G G143A", "polymerase ribozyme fitness (log ratio)": "≤ -4.2"}
{"variant": "C57U G94U C99A", "polymerase ribozyme fitness (log ratio)": -1.79}
{"variant": "A64C G68C C87A A91G C99A A121C A122C G143U", "polymerase ribozyme fitness (log ratio)": "≤ -4.2"}
{"variant": "U31G A37C C95U U109G G143U G152C", "polymerase ribozyme fitness (log ratio)": "≤ -4.2"}
{"variant": "C5G G50C A122U C125U", "polymerase ribozyme fitness (log ratio)": -3.46}
{"variant": "C18A A20G A24C C27G U82C G126U", "polymerase ribozyme fitness (log ratio)": "≤ -4.2"}
{"variant": "G34U A47C G67A C79A G84C C95A C123G U135G", "polymerase ribozyme fitness (log ratio)": "≤ -4.2"}
{"variant": "G74A G84C C95U A137C", "polymerase ribozyme fitness (log ratio)": "≤ -4.2"}
{"variant": "G80U G86U G100A", "polymerase ribozyme fitness (log ratio)": "≤ -4.2"}
{"variant": "C87U C99G U127A", "polymerase ribozyme fitness (log ratio)": "≤ -4.2"}
{"variant": "C93A U135C", "polymerase ribozyme fitness (log ratio)": -3.56}
{"variant": "A12U A49U A52C G67A C72A C85A G86C A119U", "polymerase ribozyme fitness (log ratio)": "≤ -4.2"}
{"variant": "G74A C103G", "polymerase ribozyme fitness (log ratio)": "≤ -4.2"}
{"variant": "A17U C76A G83A C87G G124A A150C", "polymerase ribozyme fitness (log ratio)": "≤ -4.2"}
{"variant": "G59A C87U A137U", "polymerase ribozyme fitness (log ratio)": "≤ -4.2"}
{"variant": "A17G A41U C54U A73G", "polymerase ribozyme fitness (log ratio)": -1.46}
{"variant": "A20U A29G C43U C75U U77G G94C U109G A113U", "polymerase ribozyme fitness (log ratio)": "≤ -4.2"}
{"variant": "A22C G25A C93U C118A", "polymerase ribozyme fitness (log ratio)": "≤ -4.2"}
{"variant": "A49G C85U", "polymerase ribozyme fitness (log ratio)": -0.982}
{"variant": "C32G G46U A47C G59A", "polymerase ribozyme fitness (log ratio)": -4.03}
{"variant": "U4A A12C G50A G84U G141U", "polymerase ribozyme fitness (log ratio)": -3.8}
{"variant": "A64G C87A A115G C125A U148C C149G", "polymerase ribozyme fitness (log ratio)": "≤ -4.2"}
{"variant": "A37U C75A G84A C114U", "polymerase ribozyme fitness (log ratio)": "≤ -4.2"}
{"variant": "A19U A20U A24G G42C U55A C57A U78C G86U A119U", "polymerase ribozyme fitness (log ratio)": "≤ -4.2"}
{"variant": "U31A C75G C76G G83U C95U A115U", "polymerase ribozyme fitness (log ratio)": "≤ -4.2"}
{"variant": "U4C C32G C103G", "polymerase ribozyme fitness (log ratio)": "≤ -4.2"}
{"variant": "C18G U61G U77G U82C C103G", "polymerase ribozyme fitness (log ratio)": "≤ -4.2"}
{"variant": "A19C U82G U109G C116A", "polymerase ribozyme fitness (log ratio)": -0.158}
{"variant": "A22C G84U A91U A107C G136C", "polymerase ribozyme fitness (log ratio)": "≤ -4.2"}
{"variant": "A24G G71C G83C C87U C96U C149A", "polymerase ribozyme fitness (log ratio)": "≤ -4.2"}
